Target: T1, PM-associated CFTR (Homo sapiens, UniProt P13569)
T1 construct: Immunoprecipitations of endogenous proteins were performed on 500 μg of lysates from Caco-2 cells; host or cells: Caco-2, T84
Assay: CFTR plasma membrane disposal in Caco-2 cells (membrane fractions)
Format: cell-based
Experimental: Human colon adenocarcinoma-derived Caco-2 and T84 cells were obtained from the ATCC. Cells were maintained in T25 flask in Modified Eagle Medium (MEM) for Caco-2, or Ham's F12+DMEM (1:1) for T84, supplemented with 10% fetal bovine serum (FBS), 2 mM Glutamine+1% Non Essential Amino Acids (NEAA) and the antibiotics penicillin\streptomycin (100 units/ml) (all reagents from Lonza) (Luciani, A., et al. 2010. Cells were grown in Transwells (Corning, 3470 or 3460) under the normal condition (Luciani, A., et al. 2012). Briefly, 8×10^4 or 5×10^5 cells were seeded in 6.5-mm diameter or 12-mm diameter, respectively, and grown until the RT reached 800 to 1,200 Ω·cm2. Transwells with a pore size of 0.4 μm were used. Medium in both the apical and basolateral chambers was changed every other day. Cells were treated with 20 μg/ml of either α-gliadin peptide P31-43 or […] or scrambled PGAV or modified P31-43 either biotin-tagged or not, for different time point (from 1 h short challenge up to 24 h). Cells were also treated with 50 or 100 μg/ml of P57-68 or PGAV peptides for 3 h. Caco-2 or T84 cells were also treated with: CFTR potentiators VX-770 (10 μM) or VX-532 (20 μM) (Selleck chemicals) or Genistein (10 μM) (Sigma-Aldrich) or in presence or absence of CFTR inhibitor172 (CFTRinh172, 20 μM) or 3-methyl-adenine (3-MA, 20 μM) (Calbiochem), Z-DON (20 nM, Zedira) or BAPTA-AM (10 μM, Calbiochem).
The whole lysate or membrane fraction proteins of cell lines and mice intestine homogenates were obtained from treated and untreated cells or mice as described. The equal amount of protein were resolved by SDS-PAGE gel and blotted with antibodies against: SQSTM1, (Sigma Aldrich, 108k4767) 1:1000, PPARγ (Santa Cruz Biotechnology, sc7273) 1:500, BECN1 (Abcam, ab58878) 1:1000, CFTR clone M3A7 (Abcam, ab4067) 1:500, phospho-ERK1/2 (php42/44, Cell Signaling Technology, #91101) 1:1000, UVRAG (Santa Cruz Biotechnology sc8215) 1:1000, NHERF-1 (BD, 611161) 1:1000, EZRIN (BD, 610603) 1:1000, hVps34 (SigmaV9764) 1:300, biotin (Abcam, ab1227) 1:2000, PKAr2a (BD, 610625) 1:500, Ubiquitin (Cell Signaling clone P4D1, #3936) 1:1000, CHIP (Calbiochem PC711) 1:500, Caspase-1 p10 (M-20) (Santa Cruz Biotechnology, sc-514) 1:200, NLRP3 (Abcam, ab4207), 1:500, IDO1 (monoclonal; cv152) 1:1000^[80], used as primary antibodies. Normalization was performed by probing the membrane with anti-β-actin (Cell Signaling, #4970) 1:1000, anti-Gapdh (Sigma-Aldrich, G8795) 1:1000 and anti-flottilin (Abcam ab15148) 1:1000 antibodies. Immunoprecipitations of endogenous proteins were performed on 500 μg of lysates from Caco-2 cells. The proteins were incubated for 12-18 h at 4° C. with 10 ug\ml of specific antibody followed by the addition of Protein A/G-agarose beads for 4 h at 4° C. The beads were then washed three times with lysis buffer and Laemmli's sample buffer was added to the samples. The membranes were then blotted with: CFTR clone CF3 (Abcam, ab2784) 1:1000, TG2 (clone CUB7402; NeoMarkers) 1:1000, CHIP (Calbiochem PC711) 1:500, Ubiquitin (Cell Signaling clone P4D1 3936), isopeptide (Abcam 422) 1:1000, PKAR2 (BD 610625) 1:500.
Protein from membrane fractionation were obtained as described. Cells were homogenized with a PotterElvehjem pestle and centrifuged at 2300×g for 15 min at 4° C. […]

T1 sequence (P13569 whole entry): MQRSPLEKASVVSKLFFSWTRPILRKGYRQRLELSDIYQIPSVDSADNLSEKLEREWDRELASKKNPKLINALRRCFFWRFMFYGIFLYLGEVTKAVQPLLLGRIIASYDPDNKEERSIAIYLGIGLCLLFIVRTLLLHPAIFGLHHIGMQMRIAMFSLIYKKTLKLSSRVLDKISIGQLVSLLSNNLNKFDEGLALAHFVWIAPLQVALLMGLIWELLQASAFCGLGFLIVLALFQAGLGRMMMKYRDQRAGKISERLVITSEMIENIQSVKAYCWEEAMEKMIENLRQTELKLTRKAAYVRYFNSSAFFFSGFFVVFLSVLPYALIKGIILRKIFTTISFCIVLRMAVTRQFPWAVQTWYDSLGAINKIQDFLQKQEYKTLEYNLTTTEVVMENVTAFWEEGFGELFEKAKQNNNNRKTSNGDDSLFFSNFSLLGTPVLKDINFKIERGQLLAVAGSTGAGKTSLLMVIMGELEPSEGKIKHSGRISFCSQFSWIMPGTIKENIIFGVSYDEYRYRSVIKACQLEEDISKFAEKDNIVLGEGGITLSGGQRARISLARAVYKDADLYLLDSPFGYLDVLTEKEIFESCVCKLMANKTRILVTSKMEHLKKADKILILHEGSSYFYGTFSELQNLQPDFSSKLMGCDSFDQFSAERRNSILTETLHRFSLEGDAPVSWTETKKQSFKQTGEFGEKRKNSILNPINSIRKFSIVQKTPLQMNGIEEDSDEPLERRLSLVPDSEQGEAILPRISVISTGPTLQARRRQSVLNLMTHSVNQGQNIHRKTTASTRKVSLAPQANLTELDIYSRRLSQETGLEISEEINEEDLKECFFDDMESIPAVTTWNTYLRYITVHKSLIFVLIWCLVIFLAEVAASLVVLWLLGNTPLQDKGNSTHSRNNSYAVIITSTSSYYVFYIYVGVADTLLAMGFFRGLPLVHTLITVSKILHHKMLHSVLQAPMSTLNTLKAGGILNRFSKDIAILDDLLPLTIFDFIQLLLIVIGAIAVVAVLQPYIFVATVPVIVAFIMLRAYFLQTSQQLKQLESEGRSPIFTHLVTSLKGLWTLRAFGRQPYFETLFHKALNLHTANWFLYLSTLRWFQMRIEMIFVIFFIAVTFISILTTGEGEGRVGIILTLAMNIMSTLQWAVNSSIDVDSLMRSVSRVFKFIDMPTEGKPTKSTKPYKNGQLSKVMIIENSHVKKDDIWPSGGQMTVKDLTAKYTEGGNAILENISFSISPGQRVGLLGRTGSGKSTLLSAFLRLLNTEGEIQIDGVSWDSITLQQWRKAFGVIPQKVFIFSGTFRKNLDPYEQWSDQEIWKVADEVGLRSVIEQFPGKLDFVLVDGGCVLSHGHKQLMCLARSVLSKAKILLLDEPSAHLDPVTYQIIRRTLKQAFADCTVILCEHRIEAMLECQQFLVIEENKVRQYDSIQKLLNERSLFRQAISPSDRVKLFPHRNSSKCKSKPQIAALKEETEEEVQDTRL

CC(C)(C)c1cc(C(C)(C)C)c(NC(=O)c2c[nH]c3ccccc3c2=O)cc1O [VX-770, N-(2,4-di-tert-butyl-5-hydroxyphenyl)-4-oxo-1,4-dihydroquinoline-3-carboxamide]
effect on P31-43-induced reduction of PM-associated CFTR: counteracted

α-gliadin peptide LGQQQPFPPQQPY (SEQ ID 1), induces an enterocyte stress response (P31-43 sequence of alpha-gliadin)
CHIP-mediated CFTR ubiquitilation: promoted | abundance of plasma membrane-associated SQSTM1/p62: increased the abundance | overall abundance of PM-associated CFTR (after 24 h of challenge): reduction of the overall abundance of PM-associated CFTR

From patent publication US20200206198A1, “CFTR CHANNEL ACTIVATOR FOR USE IN THE TREATMENT AND/OR PREVENTION OF GLUTEN SENSITIVITY CONDITIONS” (priority 2017, published 2020)
